Molecular target: T1, CD19 antigen (UniProt P15391 20-556, limits assumed)
T1 construct: whole, on cells; the cell lines are human
T1 sequence (looked up): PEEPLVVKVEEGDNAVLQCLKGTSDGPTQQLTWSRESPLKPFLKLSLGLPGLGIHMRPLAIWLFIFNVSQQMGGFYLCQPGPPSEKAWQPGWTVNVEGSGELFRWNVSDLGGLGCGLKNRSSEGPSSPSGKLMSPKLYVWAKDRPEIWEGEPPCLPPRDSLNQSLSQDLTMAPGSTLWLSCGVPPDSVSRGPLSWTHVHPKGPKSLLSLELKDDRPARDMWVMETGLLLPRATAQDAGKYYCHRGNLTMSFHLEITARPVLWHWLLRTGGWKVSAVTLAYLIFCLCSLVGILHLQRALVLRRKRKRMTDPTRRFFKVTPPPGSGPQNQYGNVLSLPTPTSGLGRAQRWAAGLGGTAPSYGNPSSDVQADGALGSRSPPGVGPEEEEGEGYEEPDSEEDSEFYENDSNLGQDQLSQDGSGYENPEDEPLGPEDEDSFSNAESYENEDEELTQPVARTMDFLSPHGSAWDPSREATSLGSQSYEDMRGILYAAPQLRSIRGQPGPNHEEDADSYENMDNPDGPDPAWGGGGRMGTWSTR
Assay: flow cytometry on BV173 cells, detected with FITC-labeled Protein L
Method: 1. T cell and BV173 cell experimental group: 5 μg of multi-function proteins TiTE-15, 16 were added to BV173 cells and 3×10\hat{ }5 T cells derived from mononuclear cell-rich white membrane layer of normal human peripheral blood by density gradient centrifugation, and stimulated by OKT3 (50 ng/mL) and IL2 (300 IU/mL) for 14 days, and incubated on ice for 30 min. The supernatant was removed by centrifugation and the cells were re-suspended in 200 μL of PBS. 2 μL of FITC-Labeled recombinant Protein L (ACRO Biosystem, RPL-PF141) was added and incubated on ice for 30 min. The supernatant was removed by centrifugation, washed twice in 500 μL PBS, and re-suspended in 200 μL of PBS.
T cell and BV173 cell negative control group: 3*10E5 T cells respectively (PBMC stimulated with 50 ng/mL OKT3, 300 IU/mL IL2) were mixed with BV173 cells (ATCC) first, and 2 μL APC Mouse anti-Human CD279 (BD, Cat. No. 558694) was added to the cells and incubated on ice for 30 min. The supernatant was removed by centrifugation, and the cells were re-suspended in 200 μL of PBS as a negative control.

B1: multifunctional protein TiTE-15 (other)
chain: DIQMTQTTSSLSASLGDRVTISCRASQDISKYLNWYQQKPDGTVKLLIYHTSRLHSGVPSRFSGSGSGTDYSLTISNLEQEDIATYFCQQGNTLPYTFGGGTKLEITGSTSGSGKPGSGEGSTKGEVKLQESGPGLVAPSQSLSVTCTVSGVSLPDYGVSWIRQPPRKGLEWLGVIWGSETTYYNSALKSRLTIIKDNSKSQVFLKMNSLQTDDTAIYYCAKHYYYGGSYAMDYWGQGTSVTVSSGGGGSITCPPPMSVEHADIWVKSYSLYSRERYICNSGFKRKAGTSSLTECVLNKATNVAHWTTPSLKCIRDPALVHQSGGSGGGGSGGGSGGGGSLQDIQMTQSPSSLSASVGDRVTITCRASQDIRNYLNWYQQKPGKAPKLLIYYTSRLESGVPSRFSGSGSGTDYTLTISSLQPEDFATYYCQQGNTLPWTFGQGTKVEIKGGGGSGGGGSGGGGSEVQLVESGGGLVQPGGSLRLSCAASGYSFTGYTMNWVRQAPGKGLEWVALINPYKGVSTYNQKFKDRFTISVDKSKNTAYLQMNSLRAEDTAVYYCARSGYYGDSDWYFDVWGQGTLVTV
notes: Main peptide chain alone, no co-peptide chain
Q: Does B1 bind?
A: Result: binds
